Positions count from the first letter of the chain named. Numbers in names are those of the source.

The source of these data is patent US20260008830A1 (FUNDACI CENTRE DE REGULACI GEN MICA, published 2026).

T1: IL-10 receptors R1 and R2 on HEK-Blue IL-10 reporter cells (UniProt Q13651 22-578; Q08334 20-325, limits assumed)
T1 sequence (looked up) 1: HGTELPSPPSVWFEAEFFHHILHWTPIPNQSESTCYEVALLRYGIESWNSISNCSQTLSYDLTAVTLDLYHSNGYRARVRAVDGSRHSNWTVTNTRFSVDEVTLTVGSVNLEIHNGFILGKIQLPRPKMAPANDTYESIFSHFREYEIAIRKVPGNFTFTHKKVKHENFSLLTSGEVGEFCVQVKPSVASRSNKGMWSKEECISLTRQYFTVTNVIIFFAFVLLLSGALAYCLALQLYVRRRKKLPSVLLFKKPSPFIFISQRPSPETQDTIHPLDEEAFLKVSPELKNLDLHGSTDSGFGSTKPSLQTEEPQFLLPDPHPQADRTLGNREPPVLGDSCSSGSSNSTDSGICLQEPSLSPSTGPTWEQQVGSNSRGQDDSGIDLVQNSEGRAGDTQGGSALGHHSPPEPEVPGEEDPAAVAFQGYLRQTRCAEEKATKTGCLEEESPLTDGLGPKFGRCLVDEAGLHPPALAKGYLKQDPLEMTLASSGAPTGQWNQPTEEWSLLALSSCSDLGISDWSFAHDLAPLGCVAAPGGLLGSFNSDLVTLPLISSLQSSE
T1 sequence (looked up) 2: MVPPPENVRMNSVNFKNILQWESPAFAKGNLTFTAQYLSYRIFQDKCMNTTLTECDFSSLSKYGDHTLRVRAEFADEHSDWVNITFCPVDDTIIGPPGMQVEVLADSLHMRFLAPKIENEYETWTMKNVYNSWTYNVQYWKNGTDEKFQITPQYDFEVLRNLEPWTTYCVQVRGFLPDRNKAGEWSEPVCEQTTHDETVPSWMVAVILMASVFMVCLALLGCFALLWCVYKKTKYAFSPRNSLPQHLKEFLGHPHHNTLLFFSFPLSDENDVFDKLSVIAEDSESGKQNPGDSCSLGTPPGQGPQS

B1: Mut3 (IL-10 D28E, S31K, N45S, T155M, N18I, N92I, K99N) (ligand)
chain: MSPGQGTQSENSCTHFPGILPNMLRDLREAFKRVKTFFQMKDQLDSLLLKESLLEDFKGYLGCQALSEMIQFYLEEVMPQAENQDPDIKAHVISLGENLNTLRLRLRRCHRFLPCENKSKAVEQVKNAFNKLQEKGIYKAMSEFDIFINYIEAYMMMKIRN
B2: Mut1 (IL-10 D28E, S31R, N45S, T155M) (ligand)
chain: B1 chain with I19N, K32R, I93N, N100K
B3: Mut2 (IL-10 D28E, S31K, N45S, T155M) (ligand)
chain: B1 chain with I19N, I93N, N100K
B4: MutM (engineered monomeric IL-10 with an inserted polyGly loop between Asn116 and Lys117) (ligand)
chain: MSPGQGTQSENSCTHFPGNLPNMLRDLRDAFSRVKTFFQMKDQLDNLLLKESLLEDFKGYLGCQALSEMIQFYLEEVMPQAENQDPDIKAHVNSLGENLKTLRLRLRRCHRFLPCENGGGSGGKSKAVEQVKNAFNKLQEKGIYKAMSEFDIFINYIEAYMTMKIRN
B5: MutSC1 (foldikine_10, single chain dimeric IL-10) (ligand)
chain: MTQSENSCTHFPGNLPNMLRDLRDAFSRVKTFFQMKDQLDNLLLKESLLEDFKGYLGCQALSEMIQFYLEEVMPQAENQDPDIKAHVNSLGENLKTLRLRLRRCHRFLPCENKSKAVEQVKNAFNKLQEKGIYKAMSEFDIFINYIEAYMTMNNGGLDYLPNMLRDLRDAFSRVKTFFQMKDQLDNLLLKESLLEDFKGYLGCQALSEMIQFYLEEVMPQAENQDPDIKAHVNSLGENLKTLRLRLRRNHRFLPCENKSKAVEQVKNAFNKLQEKGIYKAMSEFDIFINYIEAYMTMKIRN
B6: MutSC2 (MutSC1 with the Mut3 point mutations) (ligand)
chain: MTQSENSCTHFPGILPNMLRDLREAFKRVKTFFQMKDQLDSLLLKESLLEDFKGYLGCQALSEMIQFYLEEVMPQAENQDPDIKAHVISLGENLNTLRLRLRRCHRFLPCENKSKAVEQVKNAFNKLQEKGIYKAMSEFDIFINYIEAYMMMNNGGLDYLPNMLRDLREAFKRVKTFFQMKDQLDSLLLKESLLEDFKGYLGCQALSEMIQFYLEEVMPQAENQDPDIKAHVISLGENLNTLRLRLRRNHRFLPCENKSKAVEQVKNAFNKLQEKGIYKAMSEFDIFINYIEAYMMMKIRN

The target of this experiment is T1, IL-10 receptors R1 and R2 on HEK-Blue …. As to the kind of experiment: cell-based or functional assay.
B1: the “Apparent Kd (M) average (HEK-Blue IL-10 SEAP reporter, absorbance 630 nm, saturation binding fit)” value (shortened to “Apparent Kd (M) average”) was found to be 2.61e-11 M and the “Fold change-apparentKD (against IL-10 ORF)” value (shortened to “Fold change-apparentKD”) stood at 7.59 fold.
Regarding B2, the “Apparent Kd (M) average” value worked out at 1.45e-10 M and the “Fold change-apparentKD” value worked out at 1.37 fold.
B3: the “Apparent Kd (M) average” value stood at 6.45e-11 M and the “Fold change-apparentKD” value was found to be 3.07 fold.
As to B4, the “Apparent Kd (M) average” value was determined as 2.56e-10 M and the “Fold change-apparentKD” value stood at 0.773 fold.
The matching figures for B5: 1.9e-11 M and 10.4 fold.
Regarding B6, the “Apparent Kd (M) average” value was 1.2e-11 M and the “Fold change-apparentKD” value is 16.5 fold.
